Like-named read-outs stand apart in the source and are kept apart here.
T1: recombinant tetanus toxin fragment C (rTTC) (Clostridium tetani, UniProt P04958 865-1315)
T1 sequence: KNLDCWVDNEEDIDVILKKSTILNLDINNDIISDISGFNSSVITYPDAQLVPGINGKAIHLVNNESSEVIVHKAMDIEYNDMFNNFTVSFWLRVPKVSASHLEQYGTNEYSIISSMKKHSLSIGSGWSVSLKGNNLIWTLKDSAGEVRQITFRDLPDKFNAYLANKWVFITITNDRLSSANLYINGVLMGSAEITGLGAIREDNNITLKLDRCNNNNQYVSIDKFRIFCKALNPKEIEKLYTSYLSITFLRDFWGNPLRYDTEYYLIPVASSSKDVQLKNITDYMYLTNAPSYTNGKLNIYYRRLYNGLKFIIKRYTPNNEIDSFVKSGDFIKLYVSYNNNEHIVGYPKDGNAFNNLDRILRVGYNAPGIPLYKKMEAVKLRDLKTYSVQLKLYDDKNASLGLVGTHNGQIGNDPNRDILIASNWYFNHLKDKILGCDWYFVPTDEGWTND


What was measured:
[1] = biological target: T2, tetanus neurotoxin (TeNT), authentic tetanus holotoxin (Clostridium tetani, UniProt P04958 2-1315); experiment: BLI (Octet Red96); estimate of the footnote with kdis set to 1.0E-07
Target sequence in this assay (P04958 2-457 limits assumed): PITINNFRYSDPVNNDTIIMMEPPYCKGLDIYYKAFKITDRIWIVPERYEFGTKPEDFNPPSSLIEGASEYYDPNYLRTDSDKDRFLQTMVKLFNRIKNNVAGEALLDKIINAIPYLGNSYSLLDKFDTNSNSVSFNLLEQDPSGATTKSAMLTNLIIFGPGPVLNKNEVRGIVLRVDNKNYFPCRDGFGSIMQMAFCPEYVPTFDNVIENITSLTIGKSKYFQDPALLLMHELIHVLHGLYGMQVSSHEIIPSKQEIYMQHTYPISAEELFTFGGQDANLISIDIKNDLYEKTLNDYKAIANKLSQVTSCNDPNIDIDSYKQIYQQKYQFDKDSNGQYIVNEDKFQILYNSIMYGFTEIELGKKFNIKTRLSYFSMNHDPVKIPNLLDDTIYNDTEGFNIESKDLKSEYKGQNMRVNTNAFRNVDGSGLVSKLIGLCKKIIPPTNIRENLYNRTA

[2] = biological target: T2, tetanus neurotoxin (TeNT), authentic …
Target sequence in this assay (P04958 2-457 limits assumed): as above

[3] = biological target: T2, tetanus neurotoxin (TeNT), authentic …; experiment: BLI (Octet Red96): biotinylated TeNT on SA sensor, SDA as analyte
Target sequence in this assay (P04958 2-457 limits assumed, chain 1 of 2): as the sequence (P04958 2-457 limits assumed) above
Target sequence in this assay (P04958 458-1315 limits assumed, chain 2 of 2): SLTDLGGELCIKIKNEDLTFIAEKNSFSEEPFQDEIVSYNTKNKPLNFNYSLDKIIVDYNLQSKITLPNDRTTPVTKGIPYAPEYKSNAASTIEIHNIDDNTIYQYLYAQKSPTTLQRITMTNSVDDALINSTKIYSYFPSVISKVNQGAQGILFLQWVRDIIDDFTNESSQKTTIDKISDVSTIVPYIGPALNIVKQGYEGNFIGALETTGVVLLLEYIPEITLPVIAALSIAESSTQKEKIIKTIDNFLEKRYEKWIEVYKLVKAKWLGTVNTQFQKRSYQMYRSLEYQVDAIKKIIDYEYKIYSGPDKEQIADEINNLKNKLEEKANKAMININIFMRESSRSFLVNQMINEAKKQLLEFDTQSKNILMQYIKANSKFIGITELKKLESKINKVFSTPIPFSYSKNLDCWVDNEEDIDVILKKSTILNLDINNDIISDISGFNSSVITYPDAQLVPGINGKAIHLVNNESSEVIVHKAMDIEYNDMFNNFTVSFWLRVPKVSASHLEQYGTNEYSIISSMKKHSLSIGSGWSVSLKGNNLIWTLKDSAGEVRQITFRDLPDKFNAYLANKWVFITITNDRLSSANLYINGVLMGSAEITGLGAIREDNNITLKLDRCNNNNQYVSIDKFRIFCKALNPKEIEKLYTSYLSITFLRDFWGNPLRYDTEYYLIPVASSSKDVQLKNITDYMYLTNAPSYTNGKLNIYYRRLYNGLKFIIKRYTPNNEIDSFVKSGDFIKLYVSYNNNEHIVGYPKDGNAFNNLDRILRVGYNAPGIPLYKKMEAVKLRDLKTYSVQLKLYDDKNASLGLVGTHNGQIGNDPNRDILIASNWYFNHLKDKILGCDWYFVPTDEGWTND

[4] = biological target: T2, tetanus neurotoxin (TeNT), authentic …; experiment: cell-based or functional assay
Target sequence in this assay (P04958 2-457 limits assumed): as the sequence (P04958 2-457 limits assumed) above

[5] = biological target: T3, tetanus neurotoxin (TeNT), authentic tetanus holotoxin (Clostridium tetani, UniProt P04958 2-1315); experiment: competition ELISA on TeNT, binder biotinylated; competitor SVT34L
Target sequence in this assay (P04958 2-457 limits assumed, chain 1 of 2): as the sequence (P04958 2-457 limits assumed) above
Target sequence in this assay (P04958 458-1315 limits assumed, chain 2 of 2): as the sequence (P04958 458-1315 limits assumed, chain 2 of 2) above

[6] = biological target: T3, tetanus neurotoxin (TeNT), authentic …; experiment: ELISA, directly coated TeNT, unlabelled binder
[7] = biological target: T3, tetanus neurotoxin (TeNT), authentic …; experiment: competition ELISA on TeNT, binder biotinylated; competitor SVT06L
Target sequence in this assay (P04958 2-457 limits assumed, chain 1 of 2): as the sequence (P04958 2-457 limits assumed) above
Target sequence in this assay (P04958 458-1315 limits assumed, chain 2 of 2): as the sequence (P04958 458-1315 limits assumed, chain 2 of 2) above

[8] = biological target: T3, tetanus neurotoxin (TeNT), authentic …; experiment: ELISA, TeNT captured with coated mAb 6E7
Target sequence in this assay (P04958 2-457 limits assumed, chain 1 of 2): as the sequence (P04958 2-457 limits assumed) above
Target sequence in this assay (P04958 458-1315 limits assumed, chain 2 of 2): as the sequence (P04958 458-1315 limits assumed, chain 2 of 2) above

[9] = biological target: T3, tetanus neurotoxin (TeNT), authentic …; experiment: competition ELISA on TeNT, binder biotinylated; competitor SVT13L
Target sequence in this assay (P04958 2-457 limits assumed, chain 1 of 2): as the sequence (P04958 2-457 limits assumed) above
Target sequence in this assay (P04958 458-1315 limits assumed, chain 2 of 2): as the sequence (P04958 458-1315 limits assumed, chain 2 of 2) above

[10] = biological target: T3, tetanus neurotoxin (TeNT), authentic …; experiment: competition ELISA on TeNT, binder biotinylated; competitor mAb 6F57
Target sequence in this assay (P04958 2-457 limits assumed, chain 1 of 2): as the sequence (P04958 2-457 limits assumed) above
Target sequence in this assay (P04958 458-1315 limits assumed, chain 2 of 2): as the sequence (P04958 458-1315 limits assumed, chain 2 of 2) above

[11] = biological target: T3, tetanus neurotoxin (TeNT), authentic …; experiment: competition ELISA on TeNT, binder biotinylated; competitor SVT16L
[12] = biological target: T1, recombinant tetanus toxin fragment C …; experiment: ELISA, directly coated rTTC, unlabelled binder
[13] = biological target: T3, tetanus neurotoxin (TeNT), authentic …; experiment: competition ELISA on TeNT, binder biotinylated; competitor SVT15L
[14] = biological target: T3, tetanus neurotoxin (TeNT), authentic …; experiment: ELISA, TeNT captured with cAb-TT2, unlabelled binder
[15] = biological target: T3, tetanus neurotoxin (TeNT), authentic …; experiment: competition ELISA on TeNT, binder biotinylated; competitor SVT02L
[16] = biological target: T1, recombinant tetanus toxin fragment C …; experiment: ELISA, directly coated rTTC
[17] = biological target: T3, tetanus neurotoxin (TeNT), authentic …; experiment: competition ELISA on TeNT, binder biotinylated; competitor mAb 14F5
[18] = biological target: T3, tetanus neurotoxin (TeNT), authentic …; experiment: ELISA, TeNT captured with cAb-TT2, biotinylated binder
[19] = biological target: T3, tetanus neurotoxin (TeNT), authentic …; experiment: competition ELISA on TeNT, binder biotinylated; competitor SVT15L-3FW4M
[20] = biological target: T3, tetanus neurotoxin (TeNT), authentic …; experiment: ELISA, directly coated TeNT, biotinylated binder
[21] = biological target: T1, recombinant tetanus toxin fragment C …; experiment: ELISA, rTTC captured with coated mAb 6E7
[22] = biological target: T3, tetanus neurotoxin (TeNT), authentic …; experiment: GT1b-TeNT inhibition ELISA, unlabelled binder
[23] = biological target: T3, tetanus neurotoxin (TeNT), authentic …; experiment: ELISA, directly coated TeNT
[24] = biological target: T3, tetanus neurotoxin (TeNT), authentic …; experiment: competition ELISA on TeNT, binder biotinylated; competitor mAb 11n185
[25] = biological target: T3, tetanus neurotoxin (TeNT), authentic …; experiment: competition ELISA on TeNT, binder biotinylated; competitor SVT22L
[26] = biological target: T3, tetanus neurotoxin (TeNT), authentic …; experiment: competition ELISA on TeNT, binder biotinylated; competitor SVT08L
[27] = biological target: T3, tetanus neurotoxin (TeNT), authentic …; experiment: competition ELISA on TeNT, binder biotinylated; competitor mAb 6E7
[28] = biological target: T3, tetanus neurotoxin (TeNT), authentic …; experiment: GT1b-TeNT inhibition ELISA, EC at A450 0.59
[29] = biological target: T3, tetanus neurotoxin (TeNT), authentic …; experiment: competition ELISA on TeNT, binder biotinylated; competitor SVT03L

| Binder | % inhibition of binding [5] | EC resulting in A450 0.2 [6] | maximal absorbance at 450 nm [6] | % inhibition of binding [7] | absorbance at 450 nm [8] | % inhibition of binding [9] | % inhibition of binding [10] | % inhibition of binding [11] | maximal absorbance at 450 nm [12] | % inhibition of binding [13] | EC resulting in A450 0.15 [14] | maximal absorbance at 450 nm [14] | % inhibition of binding [15] | binding result [16] | % inhibition of binding [17] | EC resulting in A450 0.2 [18] | maximal absorbance at 450 nm [18] | % inhibition of binding [19] | EC resulting in A450 0.4 [20] | maximal absorbance at 450 nm [20] | other results |
| --- | --- | --- | --- | --- | --- | --- | --- | --- | --- | --- | --- | --- | --- | --- | --- | --- | --- | --- | --- | --- | --- |
| SVT03L (VHH) VHH: QVQLQQSGGGSVQTGDSLTLSCTASGGSLNSYFVGWFRQSGGKEREFVSVIARTGRSTSYADSVKGRFTISRDNAANTVFLTMNNLRPDDTAIYYCAAVGRPGVLHLTQSYDYWGQGTQVTVSS [SVT03L, listing 1 of 2 here] |  |  |  |  |  |  |  |  |  |  |  |  |  |  |  |  |  |  |  |  | Kd [1]: ~0.0177 pM; Kd [2]: < 1 pM; koff [3]: < 1e-07 s⁻¹; kon [3]: 5.65e+06 M⁻¹ s⁻¹; Endpoint dilution factor [4]: < 1; SDA concentration providing full protection [4]: > 1000 nM |
| SVT02L (VHH) VHH: QVQLQQSGGGSVQAGGSLRLSCVGPQRTFSTYGMGWFRQAPGKEREFVAGINYKGDTTYYADSVKGRFTISRDNAKNTLYLQMDSLKPEDRAVYQCARKGGLGGDYRDAGQYRYWGQGTQVTVSS | -16% | > 1000 ng/mL | 0.077 | 2% | 1.19 | 21% | 19% | 26% | 0.057 | 6% | 36 ng/mL | 0.196 | 96% | no binding (tested: A450 above 0.2 counts as binding) | 97% | 11 ng/mL | 0.53 | 12% | > 1000 ng/mL | 0.191 | absorbance at 450 nm [21]: 0.062; minimal absorbance at 450 nm [22]: 0.576; absorbance at 450 nm [23]: 0.062; % inhibition of binding [24]: 19%; % inhibition of binding [25]: 3%; % inhibition of binding [26]: 16%; % inhibition of binding [27]: 8%; concentration giving A450 of 0.59 [28]: > 1 µg/mL; % inhibition of binding [29]: 9% |
| SVT03L (VHH) VHH: QVQLQQSGGGSVQTGDSLTLSCTASGGSLNSYFVGWFRQSGGKEREFVSVIARTGRSTSYADSVKGRFTISRDNAANTVFLTMNNLRPDDTAIYYCAAVGRPGVLHLTQSYDYWGQGTQVTVSS [SVT03L, listing 2 of 2 here] | -4% | > 1000 ng/mL | 0.104 | 10% | 1.32 | 23% | 17% | 18% | 0.053 | 12% | 1.9 ng/mL | 0.304 | 10% | no binding (tested: A450 above 0.2 counts as binding) | -8% | 2.8 ng/mL | 0.493 | 10% | > 1000 ng/mL | 0.233 | absorbance at 450 nm [21]: 0.061; minimal absorbance at 450 nm [22]: 0.903; absorbance at 450 nm [23]: 0.331; % inhibition of binding [24]: -26%; % inhibition of binding [25]: 10%; % inhibition of binding [26]: 10%; % inhibition of binding [27]: -12%; concentration giving A450 of 0.59 [28]: > 1 µg/mL; % inhibition of binding [29]: 97% |
